Assay results reported in PMC2759312.

Target: gamma complex labeled with AF488 on delta' (gammac-AF488);beta sliding clamp (Escherichia coli;Escherichia coli, UniProt P06710-2;P28630;P28631;P28905;P28632;P0A988 1-431;1-343;1-334;1-147;1-137;1-366, |)
Assay: fluorescence anisotropy

B1: p/t-DNA-RhX (30-nt primer on 60-nt template) (dsDNA)
DNA 1: TTCAGGTCAGAAGGGTTCTATCTCTGTTGGCCAGAATGTCCCTTTTATTACTGGTCGTGT
DNA 2: ACACGACCAGTAATAAAAGGGACATTCTGG
modifications: C6-amino linker at 5' end of 60mer
B1: binds.
